The values that follow come from article PMC9405769, “The Crystal Structure of the Defense Conferring Rice Protein OsJAC1 Reveals a Carbohydrate Binding Site on the Dirigent-like Domain” (Biomolecules, 2022).

Data set [1] concerns the molecule itself. Briefly: crystal structure; DIR-cf1: protein in 15 mM Tris-HCl pH 7.4, 1 mM DTT, 6.25 mg/mL; reservoir 0.2 M CaCl2, 20% (w/v) PEG 3350; sitting drop, 20 °C; space group P212121; three chains per asymmetric unit.
Data set [2] concerns the molecule itself. Briefly: crystal structure; JRL-cf1: protein in 25 mM sodium phosphate pH 7.0, 10 mg/mL; reservoir 0.05 M MES pH 6.0, 28% (w/v) PEG 3350; sitting drop, 20 °C; non-reducing; space group P212121; two chains per asymmetric unit.
Data set [3] deals with the molecule itself. Briefly: crystal structure; JRL-cf2: protein in 25 mM sodium phosphate pH 7.0, 11 mg/mL; reservoir 0.2 M NH4I, 20% (w/v) PEG 3350; sitting drop, 20 °C; space group C2221; two chains per asymmetric unit.

The term stoichiometry N denotes a count of units in the complex or per binding partner.

B1: OsJAC1-DIR domain (His-tag cleaved by thrombin) (domain or fragment, rice (Oryza sativa))
chain: SKLQITPCGMLVQGNQINFTKLYLHHTPAGPEQNQSAVTSNDKKTGLGCIVVNNWSVYDGIGSDAKLVAYAKGLHVFAGAWHNSFSLVFEDERLKGSTLQVMGLIVEEGDWAIVGGTGQFAMATGVILKKMQEQKQYGNIIELTIHGFCPLLKGS
notes: DIR (dirigent) domain, the N-terminal domain of the monocot chimeric jacalin OsJAC1, rice (Oryza sativa); traced residues include Lys6 (chain B), and the C-terminus of the model of chain A (cf1) is at Leu155; also called DIR-cf1; DIR-cf2; source: prepared as previously described in Huwa et al. (2021) [25]; His-tag removed with thrombin, no further purification
On to B1, for which the “stoichiometry N” value in data set [1] was found to be 3.

B2: OsJAC1-JRL domain (His-tagged, crystal form 1) (domain or fragment, rice (Oryza sativa))
chain: QCPVTKIGPWGSSHEGTVQDITESPKRLESITLYHGWSVDSISFTYLDHAGEKHKAGPWGGPGGDPIMIEFGSSEFLKEVSGTFGPYEGSTVITSINFITNKQTYGPFGRQEGTPFSVPAQNNSSIVGFFGRSGKYINAVGVYVQPI
modifications: symmetric inter-subunit disulfide bond at Cys161 (Cys161-Cys161)
notes: JRL (jacalin-related lectin) domain of the monocot chimeric jacalin OsJAC1, rice (Oryza sativa); the model's termini are Gln160 and Pro305 of full-length OsJAC1 (residue range 160-306 used for superposition); also called JRL-cf1; OsJAC1-JRL (cf1); source: prepared as previously described in Huwa et al. (2021) [25]
For B2, the “stoichiometry N” value in data set [2] is 2.

B3: OsJAC1-JRL domain (Strep-tagged, crystal form 2) (domain or fragment, rice (Oryza sativa))
chain: QCPVTKIGPWGSSHEGTVQDITESPKRLESITLYHGWSVDSISFTYLDHAGEKHKAGPWGGPGGDPIMIEFGSSEFLKEVSGTFGPYEGSTVITSINFITNKQTYGPFGRQEGTPFSVPAQNNSSIVGFFGRSGKYINAVGVYVQPI
modifications: symmetric inter-subunit disulfide bond at Cys161 (Cys161-Cys161)
notes: JRL (jacalin-related lectin) domain of the monocot chimeric jacalin OsJAC1, rice (Oryza sativa); residue range 160-306 of full-length OsJAC1 used for superposition; also called JRL-cf2; OsJAC1-JRL (cf2); source: prepared as previously described in Huwa et al. (2021) [25]
With B3, the “stoichiometry N” value in data set [3] was found to be 2.
